The conditions of this series: Bacillus amyloliquefaciens; pH 6.3; Thermal; DSC; MES 50 mM; whole UniProt chain shown.

B1: Ribonuclease wild type, P00648 (protein)
chain: MMKMEGIALKKRLSWISVCLLVLVSAAGMLFSTAAKTETSSHKAHTEAQVINTFDGVADYLQTYHKLPDNYITKSEAQALGWVASKGNLADVAPGKSIGGDIFSNREGKLPGKSGRTWREADINYTSGFRNSDRILYSSDWLIYKTTDHYQTFTKIR
In general, Tm refers to the temperature at which the thermal transition is half complete. As for B1, the Tm came out at 54.1 °C.

For the origin of these results see FireProtDB (doi:10.1006/jmbi.1999.2569).
